According to publication PMC3382604:

Legend:
[1] = target: Dihydrodipicolinate synthase from Bacillus anthracis (Bacillus anthracis); test: SAXS
[2] = target: Dihydrodipicolinate synthase from Bacillus anthracis (Bacillus anthracis); test: AUC
[3] = target: Dihydrodipicolinate synthase from Vitis vinifera (Vitis vinifera); test: SAXS
[4] = target: Dihydrodipicolinate synthase from Vitis vinifera (Vitis vinifera); test: crystal structure; Vv-DHDPS in complex with pyruvate, 2.2 Å, space group P1, eight monomers (two tetramers) in the asymmetric unit
[5] = target: Dihydrodipicolinate synthase from Vitis vinifera (Vitis vinifera); test: AUC; sedimentation velocity, 13 µM initial protein, 40,000 rpm, 30°C, absorbance at 280 nm, 2DSA Monte Carlo analysis; without and with saturating (5 mM) pyruvate

| Substance | stoichiometry N [1] | stoichiometry N [2] | stoichiometry N [3] | stoichiometry N [4] | stoichiometry N [5] |
| --- | --- | --- | --- | --- | --- |
| Dihydrodipicolinate synthase from Bacillus anthracis (enzyme) | 4 | 4 | – | – | – |
| Dihydrodipicolinate synthase from Vitis vinifera (enzyme) | – | – | 4 | 4 | 4 |
